Laboratory results reported in US20260234255A1 (Genmab, published 2026).

Experiments:
[1] = target: T1, human CD30 (human, UniProt P28908 19-595); assay: flow cytometry, Expi293F cells transfected with human CD30
T1 construct: also called huCD30; TNFRSF8
T1 sequence: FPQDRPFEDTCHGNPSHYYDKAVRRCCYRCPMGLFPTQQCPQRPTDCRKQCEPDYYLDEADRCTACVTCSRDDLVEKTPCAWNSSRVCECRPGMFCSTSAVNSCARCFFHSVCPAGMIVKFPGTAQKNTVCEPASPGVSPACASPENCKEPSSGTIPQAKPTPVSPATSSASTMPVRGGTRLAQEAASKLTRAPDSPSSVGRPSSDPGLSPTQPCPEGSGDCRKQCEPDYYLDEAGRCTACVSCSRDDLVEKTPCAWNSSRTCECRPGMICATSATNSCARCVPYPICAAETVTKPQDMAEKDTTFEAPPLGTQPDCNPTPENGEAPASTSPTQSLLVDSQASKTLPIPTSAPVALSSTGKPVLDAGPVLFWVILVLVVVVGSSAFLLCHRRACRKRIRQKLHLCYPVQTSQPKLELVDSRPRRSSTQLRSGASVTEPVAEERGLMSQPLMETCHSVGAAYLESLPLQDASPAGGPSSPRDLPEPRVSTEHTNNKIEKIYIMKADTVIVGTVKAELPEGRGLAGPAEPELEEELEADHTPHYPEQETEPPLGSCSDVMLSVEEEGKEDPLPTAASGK
Method: Cells (3×10⁴ cells/well) were incubated in polystyrene 96-well round-bottom plates (Greiner bio-one, cat. no. 650180) with serial dilutions of antibodies (ranging from 0.005 to 10 μg/mL in 3-fold dilution steps) in 100 μL staining buffer at 4° C. for 30 min. Experiments were performed in technical duplicate. After washing twice in staining buffer, cells were incubated in 50 μL secondary antibody at 4° C. for 30 min. As a secondary antibody, R-PE-conjugated goat-anti-human IgG (Jackson ImmunoResearch, UK; cat. no. 109⁻¹¹⁶-098) diluted 1:400 in staining buffer was used. Cells were washed twice in staining buffer, resuspended in 30 μL staining buffer containing 0.4% EDTA and analyzed on an iQue Screener (Intellicyt Corporation, USA). Binding curves were analyzed using non-linear regression (sigmoidal dose-response with variable slope) using GraphPad Prism V9.0.0 software (GraphPad Software, San Diego, CA, USA).

[2] = target: T1, human CD30; assay: flow cytometry, HDLM-2 cells
Method: (§1) Binding of CD3×CD30 bispecific antibodies to two CD30-expressing human tumor cell lines SU-DHL-1 (ALCL; ATCC, cat. no. ACC 356) and HDLM-2 (HL; ATCC, cat. no. CRL-2965) was analyzed […] by flow cytometry.
(§2) Cells (3×10⁴ cells/well) were incubated in polystyrene 96-well round-bottom plates (Greiner bio-one, cat. no. 650180) with serial dilutions of antibodies (range 0.0046 to 10 μg/mL in 3-fold dilution steps) in 50 μL staining buffer at 4° C. for 30 min. After washing twice in staining buffer, cells were incubated with 50 μL secondary antibody at 4° C. for 30 min. […] Next, cells were washed twice in staining buffer, resuspended in 100 μL staining buffer supplemented with TO-PRO-3 iodide (Thermo Fisher Scientific; cat. no. T3605; 1:8000 dilution) and analyzed on a FACSCelesta flow cytometer (BD Biosciences, USA). Live cells were gated based on FSC/SSC and absence of TOPRO-3 staining. Binding curves were analyzed by non-linear regression of log-transformed data (sigmoidal dose-response with variable slope, four parameters) using GraphPad Prism V7.02 software (GraphPad Software, San Diego, CA, USA).

[3] = target: T1, human CD30; assay: flow cytometry, SU-DHL-1 cells
Method: as §1, §2

[4] = target: T1, human CD30; assay: cell-based or functional assay

B1: bsG1-huCD3-FEALxCD30-HeFi-I-FEAR (bispecific antibody, human IgG1, kappa, lambda)
heavy 1: not shown
light 1: not shown
heavy 2: EVKLVESGGGLVQPGGSLRLSCATSGFTFSDYYMNWVRQPPGKALEWLGFIRNKANGYTTEFSASVMGRFTISRDDSQSILYLQMNTLRAEDSATYYCARDPPYGNPHYYAMDYWGQGTSVTVSSASTKGPSVFPLAPSSKSTSGGTAALGCLVKDYFPEPVTVSWNSGALTSGVHTFPAVLQSSGLYSLSSVVTVPSSSLGTQTYICNVNHKPSNTKVDKRVEPKSCDKTHTCPPCPAPEFEGGPSVFLFPPKPKDTLMISRTPEVTCVVVAVSHEDPEVKFNWYVDGVEVHNAKTKPREEQYNSTYRVVSVLTVLHQDWLNGKEYKCKVSNKALPAPIEKTISKAKGQPREPQVYTLPPSREEMTKNQVSLTCLVKGFYPSDIAVEWESNGQPENNYKTTPPVLDSDGSFFLYSRLTVDKSRWQQGNVFSCSVMHEALHNHYTQKSLSLSPG
light 2: not shown
notes: Bispecific IgG1 made by controlled Fab-arm exchange; also called BsIgG1-huCD3-FEALxCD30-HeFi-I-FEAR
EC50 (read off the curve) [1]: ~0.1 µg/mL | EC50 (read off the curve) [2]: ~0.3 µg/mL | EC50 (read off the curve) [3]: ~0.3 µg/mL | T-cell mediated cytotoxicity of Karpas-299 cells, IC50 average [4]: 0.052 µg/mL | T-cell mediated cytotoxicity of Karpas-299 cells, maximum lysis average [4]: 43%

B2: bsG1-huCD3-FEALxCD30-T405-FEAR (bispecific antibody, human IgG1, kappa, lambda)
heavy 1: not shown
light 1: not shown
heavy 2: QVQLQQIGAELVRPGASVKLSCKASGYTFNNYWINWVKQRPGQGLEWIGNIYPSDSRSNYNQKFKDKATLTVDKPSSTAYMQLSSPTSEDSAVYYCTLGSYWGQGTLVTVSAASTKGPSVFPLAPSSKSTSGGTAALGCLVKDYFPEPVTVSWNSGALTSGVHTFPAVLQSSGLYSLSSVVTVPSSSLGTQTYICNVNHKPSNTKVDKRVEPKSCDKTHTCPPCPAPEFEGGPSVFLFPPKPKDTLMISRTPEVTCVVVAVSHEDPEVKFNWYVDGVEVHNAKTKPREEQYNSTYRVVSVLTVLHQDWLNGKEYKCKVSNKALPAPIEKTISKAKGQPREPQVYTLPPSREEMTKNQVSLTCLVKGFYPSDIAVEWESNGQPENNYKTTPPVLDSDGSFFLYSRLTVDKSRWQQGNVFSCSVMHEALHNHYTQKSLSLSPG
light 2: DVVMTQTPLTLSVTIGQPASISCKSSQSLSDSDGKTYLNWLLQRPGQSPKRLIYLVSKLDSGVPDRFTGSGSGTDFTLKISRVEAEDLGVYYCWQGAHFPRTFGGGTKLEIKRTVAAPSVFIFPPSDEQLKSGTASVVCLLNNFYPREAKVQWKVDNALQSGNSQESVTEQDSKDSTYSLSSTLTLSKADYEKHKVYACEVTHQGLSSPVTKSFNRGEC
notes: Bispecific IgG1 made by controlled Fab-arm exchange; also called bsIgG1-huCD3-FEALxCD30-T405-FEAR
EC50 (read off the curve) [1]: ~0.7 µg/mL | EC50 (read off the curve) [2]: ~1 µg/mL | T-cell mediated cytotoxicity of Karpas-299 cells, IC50 average [4]: 0.078 µg/mL | T-cell mediated cytotoxicity of Karpas-299 cells, maximum lysis average [4]: 41.7%

B3: bsG1-huCD3-FEALxCD30-T408-FEAR (bispecific antibody, human IgG1, kappa, lambda)
heavy 1: not shown
light 1: not shown
heavy 2: QVQLQQPGAELVRPGASVKLSCKASGYTFTSYWINWVKQRPGQGLEWIGNIYPSDSYSNYNQKFKDKATLTVDKSSSTAYMQLSSPTSEDSAVYYCTLGSYWGQGTLVTVSAASTKGPSVFPLAPSSKSTSGGTAALGCLVKDYFPEPVTVSWNSGALTSGVHTFPAVLQSSGLYSLSSVVTVPSSSLGTQTYICNVNHKPSNTKVDKRVEPKSCDKTHTCPPCPAPEFEGGPSVFLFPPKPKDTLMISRTPEVTCVVVAVSHEDPEVKFNWYVDGVEVHNAKTKPREEQYNSTYRVVSVLTVLHQDWLNGKEYKCKVSNKALPAPIEKTISKAKGQPREPQVYTLPPSREEMTKNQVSLTCLVKGFYPSDIAVEWESNGQPENNYKTTPPVLDSDGSFFLYSRLTVDKSRWQQGNVFSCSVMHEALHNHYTQKSLSLSPG
light 2: DVVMTQTPLTLSVTIGQPASISCKSSQSLSDSDGKTYLNWLLQRPGQSPKRLIYLVSKLDSGVPDRFTGSGSGTDFTLKISRVEAEDLGVYYCWQGAHFPRTFGGGTKLEIKRTVAAPSVFIFPPSDEQLKSGTASVVCLLNNFYPREAKVQWKVDNALQSGNSQESVTEQDSKDSTYSLSSTLTLSKADYEKHKVYACEVTHQGLSSPVTKSFNRGEC
T-cell mediated cytotoxicity of Karpas-299 cells, IC50 average [4]: 0.226 µg/mL | T-cell mediated cytotoxicity of Karpas-299 cells, maximum lysis average [4]: 41.3%

B4: IgG1-CD30-HRS-3-FEAR (antibody, V domains shown)
VH: QVQLQQSGAELARPGASVKMSCKASGYTFTTYTIHWVRQRPGHDLEWIGYINPSSGYSDYNQNFKGKTTLTADKSSNTAYMQLNSLTSEDSAVYYCARRADYGNYEYTWFAYWGQGTTVTVSS
VL: DIVMTQSPKFMSTSVGDRVTVTCKASQNVGTNVAWFQQKPGQSPKVLIYSASYRYSGVPDRFTGSGSGTDFTLTISNVQSEDLAEYFCQQYHTYPLTFGGGTKLEINR
notes: Monospecific, bivalent parental antibody
EC50 (read off the curve) [2]: ~0.2 µg/mL | EC50 (read off the curve) [3]: ~0.2 µg/mL

B5: bsG1-huCD3-FEALxCD30-T215-FEAR (bispecific antibody, human IgG1, kappa, lambda)
heavy 1: not shown
light 1: not shown
heavy 2: not shown
light 2: DIVMTQSQKFMSTSVGDRVSVTCKASQNVFTNVAWYQQKLGQSPKPLIYSASYRYSGVPDRFTGSGSGTDFTLTISDVQSEDLAEYFCQQYNSYPVTFGAGTKLELKRTVAAPSVFIFPPSDEQLKSGTASVVCLLNNFYPREAKVQWKVDNALQSGNSQESVTEQDSKDSTYSLSSTLTLSKADYEKHKVYACEVTHQGLSSPVTKSFNRGEC
notes: Bispecific IgG1 made by controlled Fab-arm exchange; also called bsIgG1-huCD3-FEALxCD30-T215-FEAR
EC50 (read off the curve) [2]: ~0.6 µg/mL | T-cell mediated cytotoxicity of Karpas-299 cells, IC50 average [4]: 0.077 µg/mL | T-cell mediated cytotoxicity of Karpas-299 cells, maximum lysis average [4]: 42.8%

B6: IgG1-CD30-HeFi-I-FEAR (antibody, V domains shown)
VH: EVKLVESGGGLVQPGGSLRLSCATSGFTFSDYYMNWVRQPPGKALEWLGFIRNKANGYTTEFSASVMGRFTISRDDSQSILYLQMNTLRAEDSATYYCARDPPYGNPHYYAMDYWGQGTSVTVSS
VL: DIVLTQSPASLAVSLGQRATISCRASKSVSASGYNYMHWYQQKAGQPPKLLIHLASNLESGVPARFSGSGSGTDFTLNIHPVEEEDASTYYCQHSGELPFTFGSGTKLEIKR
notes: as for B4
binding result [1]: binds

B7: IgG1-CD30-T215-FEAR (antibody, V domains shown)
VH: QVTLKESGPGILQPSQTLSLTCSFSGFSLSVSGMGVSWIRQPSGKGLEWLAHIHWDDDRRSNPSLRSRLTISKDTSNNQVFLKITSVDTADTATYYCARRPDLYGNYFFFDFWGQGTTLTVSS
VL: DIVMTQSQKFMSTSVGDRVSVTCKASQNVFTNVAWYQQKLGQSPKPLIYSASYRYSGVPDRFTGSGSGTDFTLTISDVQSEDLAEYFCQQYNSYPVTFGAGTKLELKR
notes: as for B4
EC50 (read off the curve) [2]: ~0.2 µg/mL | EC50 (read off the curve) [3]: ~0.1 µg/mL

B8: IgG1-CD30-hAC10-FEAR (antibody, V domains shown)
VH: QVQLVQSGAEVKKPGASVKVSCKASGYTFTDYYITWVRQAPGQGLEWMGWIYPGSGNTKYNEKFKGRVTMTRDTSISTAYMELSRLRSDDTAVYYCANYGNYWFAYWGQGTLVTVSS
VL: DIVMTQSPDSLAVSLGERATINCKASQSVDFDGDSYMNWYQQKPGQPPKLLIYAASNLESGVPDRFSGSGSGTDFTLTISSLQAEDVAVYYCQQSNEDPWTFGQGTKVEIKR
notes: as for B4
EC50 (read off the curve) [2]: ~0.1 µg/mL

B9: bsG1-huCD3-FEALxCD30-hAC10-FEAR (bispecific antibody, human IgG1, kappa, lambda)
heavy 1: not shown
light 1: not shown
heavy 2: QVQLVQSGAEVKKPGASVKVSCKASGYTFTDYYITWVRQAPGQGLEWMGWIYPGSGNTKYNEKFKGRVTMTRDTSISTAYMELSRLRSDDTAVYYCANYGNYWFAYWGQGTLVTVSSASTKGPSVFPLAPSSKSTSGGTAALGCLVKDYFPEPVTVSWNSGALTSGVHTFPAVLQSSGLYSLSSVVTVPSSSLGTQTYICNVNHKPSNTKVDKRVEPKSCDKTHTCPPCPAPEFEGGPSVFLFPPKPKDTLMISRTPEVTCVVVAVSHEDPEVKFNWYVDGVEVHNAKTKPREEQYNSTYRVVSVLTVLHQDWLNGKEYKCKVSNKALPAPIEKTISKAKGQPREPQVYTLPPSREEMTKNQVSLTCLVKGFYPSDIAVEWESNGQPENNYKTTPPVLDSDGSFFLYSRLTVDKSRWQQGNVFSCSVMHEALHNHYTQKSLSLSPG
light 2: not shown
notes: Bispecific IgG1 made by controlled Fab-arm exchange
EC50 (read off the curve) [2]: ~0.2 µg/mL | EC50 (read off the curve) [3]: ~0.2 µg/mL
